The record followed here is the DeepSol protein solubility set.

The data set in a line: soluble on expression in E. coli; label from the status in PepcDB or PDB records.
Consider “MQGKLNCEIEMEVQIFTHKNCVECNMLLEYLENKGLLGKVKIIDTELYPFLAFEKGVISTPSIFIDGKLVYAGIVDFEEFERILSGQKVTKQIDKASLVEKLMLGIVDSFAATAWLYINRDFDSFLAQKDFVMAVTGLSLLDEREGDEYYNYLRNVMVKEGDRYLEEWKPRMLRNISSNFIREIFWLYERKISKETLTQKYPVEVFAHWLMIRSGAVGRVGLRIYPLSDSTVMKRVLEAYNFMLENYDEIFNKVQKEQMELKTKNKEQVRYLQL”, for which the “soluble on expression in E. coli” value is on record as “soluble”. For the sequence “MGSDKIHHHHHHMERLQALEAWAARQLGQETVDIAPASADASFRRYFRVTAKGRDYIVMDAPPAHEDCGPFIAVARLFGDAGVHVPEVLAQDLDQGFLLLTDLGHTTYLSALNESTARELYLAANDALIRIQLASRPGVLPDYDRALLTRELMLFPEWYVAKHLGVELNAAQRATLDTVFERLLTNNLAQPQVYVHRDWHSRNLMVSDPNPGILDFQDAVFGPITYDLASIYRDAYIQWDEERQLDWVIRYWEKARAARLPVAADFGDFWRDFEWMGAQRHLKVLGIFARLYHRDGKDGYLKDMPLVMHYLRSVCGRYDELKPLLLLLDALQDRQPQAGYTF”, the “soluble on expression in E. coli” value was “not soluble”. Turning to “MSSAYQLVIFDWEGTIADTLGVILHTVATEAKMLGFGDIDPYQARKYVDLGLVQAVKKTLPNLTAGQQEDLLQAVQSAMISRPTEVRLIPGVLEFIQQLHQAKVDLAIATNKGHNSLIRALQATELDQLFKVTRSAGQVPAKPCPQMLEEIMEEFGRDPSSTLMIGDSTTDMEMAKRINVNAIGMDFYHQQEDALKAAGALAVFDDYKLLSAYLMLPEA”, the “soluble on expression in E. coli” value was “not soluble”. For “GPGSMHSMVRVGLTNGMVLTGRIVEFDAVTMNMKLDAITDMAVLHPAAGEGCGDSAYETNPAALRCCNSVVVRGCHLRYMDFIDEESDNGRGLQELITAVRVVKPSVPQD”, the “soluble on expression in E. coli” value is listed as “not soluble”.

With “MAHHHHHHMVLIKAKNNEGKTVGEGKFSPFCFVLYGDIQYGMIRANHGWYEERKLLKEAITKTNKIKPSFVVAMGDLANKFPIDELQNEQYKDLKTDFEQLDKSIDLYVFCGNHDVGNEPTHETISNFEHFWGDSYYSYIYNNCGFIILNSAVFFNDTQVQDLKEKQFLWLDETLKKMVSKNVKHKFLFLHHALMYDHIEEDENIGLIYGDKFRNYSEKNKFHIKKETRMVIYDMLKKYKVSHVFCAHLHANREKNIDANIKQITISAVGMQAASDQSGLMIVQVAEEGVDYKYYPFEFVPSFVKV”, the “soluble on expression in E. coli” value was “not soluble”.

“SRMEQVIVKQGKDALTADAVFVSANPLSDSLLKSTEQLERSVMTRFSTMAFSDNGMQLISVRGVDESYPLMGELVLDGNESGRVKPNQLWLDERIMAQLEVTKGDNVTIGDADFTVSGAVLMEPGLSFNPFQQMPAAYIHQSDVEKTGAIQVGSRVQYRLFLKADNAALKQLQDKTELSPSDRWRTQDTASRSNEVFDRTTQ”: the “soluble on expression in E. coli” value is given as “not soluble”. With “GSFTMSYCRQEGKDRIIFVTKEDHETPSSAELVADDPNDPYEEHGLILPNGNINWNCPCLGGMASGPCGEQFKSAFSCFHYSTEEIKGSDCVDQFRAMQECMQKYPDLYPQEDEDEEEEREKKPAEQAEETAPIEATATKEEEGSS”, the “soluble on expression in E. coli” value is recorded as “soluble”. For “MTEDQVEILEYNFNKVNKHPDPTTLCLIAAEAGLTEEQTQKWFKQRLAEWRRSEGLPSECRSVTD”, the “soluble on expression in E. coli” value is listed as “soluble”. In the case of “MGSDKIHHHHHHMLRLSEIKLPLDHPPEAITTAILQKLKIQADELLGYEIFKRSYDARKKDAIVWVYILDLKVKNEAQLLKRFQKDPHVNPTPDMSYRVVAQAPEGLTERPVVIGAGPCGMFAALTLAQMGFRPILFERGKTVRDRTADTFAFWKKRGEFNPESNAQFGEGGAGTFSDGKLYSQVRDPQYYGRKVLTELVNSGANPEILYVNKPHIGTFKLVGVVQQMRARIEALGGEIHFQSRVESLHIEDRQVRGLRLTNGDYIPARHVVLAIGHSARDTFQMLFDQGVYIEAKPFSIGFRIEHPQPLIDRARFGPFAGHKSLGAADYKLVHHCQNGRTVYSFCMCPGGLVVAATSEPGRVVTNGMSQYSRNERNANSGIVVGITPEDYPGHPLAGIDLQRRLEAKAFELGGGTYEAPGQLVGDFLAGRPSQHLGTVRPSYAPGVHLTDLSESLPDYAIAAIREALPAFNRQIQGFALPDAMLTGVETRTSSPVRIKRGEDFQSLNTTGLFPAGEGAGYAGGILSAGIDGIKVAEAVALAMLRSQPQTV” it was “not soluble”. Take “MELERIVSAALLAFVQTHLPEADLSGLDEVIFSYVLGVLEDLGPSGPSEENFDMEAFTEMMEAYVPGFAHIPRGTIGDMMQKLSGQLSDARNKENLQPQSSGVQGQVPISPEPLQRPEMLKEETRSSAAAAADTQDEATGAEEELLPGVDVLLEVFPTCSVEQAQWVLAKARGDLEEAVQMLVEGKEEGPAAWEGPNQDLPRRLRGPQKDELKSFILQKYMMVDSA”: the “soluble on expression in E. coli” value is on record as “soluble”. In the case of “MGSANGKTLGEVWKRELNLLDKRQFELYKRTDIVEVDRDTARRHLAEGKVDTGVAVSRGTAKLRWFHERGYVKLEGRVIDLGCGRGGWCYYAAAQKEVSGVKGFTLGRDGHEKPMNVQSLGWNIITFKDKTDIHRLEPVKCDTLLCDIGESSSSSVTEGERTVRVLDTVEKWLACGVDNFCVKVLAPYMPDVLEKLELLQRRFGGTVIRNPLSRNSTHEMYYVSGARSNVTFTVNQTSRLLMRRMRRPTGKVTLEADVILPIGTRSVGSSSHHHHHH”, the “soluble on expression in E. coli” value was “soluble”. In the case of “MLKVEKFKKLKRFEVYYCLKNSFLEEVDIEMKYSCSITTIMSNGSASLLMNWEELTPGHCFTSYTTNPIAGDYGLNASAIDGHTEELVATHPAGTLENATQ” it was “not soluble”; in that of “MAHHHHHHMPLPPVESGPAAMTRRNFLVEMNRLRVSQYMPTRKQLEEEDLRIATIRQEEKRAKHAEWAESRRKAADSYNAAGTNSGRPLPGSVSRSMRASGKGKPAENTYKLEKEEEAAKKREYNRLYEQEAKHQLAIRQATLKQMHDDEVRQMEALRKVNEEEDRKVAEAHAQAMEEERQYMERLKQSNKRELAARKAEQQAKEARDRQLQELVNENNRHRAEMDERRLKNVTRMLHLQNEQFHREAMMSKKASEAKHYEEVAATEERNRRLTKEEQEAAQRKKEQFRQDFEDCIARDKEFRRTHNYDEPMEVTRQRNELAAQSYRLVLEEERLQNAERRQQYRKDLMDQIMAKQTYRMTHLDEAGI”, “not soluble”; in that of “MQPVLVFKLTADFREDPDPRKVNLGVGAYRTDDCHPWVLPVVKKVEQKIANDNSLNHEYLPILGLAEFRSCASRLALGDDSPALKEKRVGGVQSLGGTGALRIGADFLARWYNGTNNKNTPVYVSSPTWENHNAVFSAAGFKDIRSYRYWDAEKRGLDLQGFLNDLENAPEFSIVVLHACAHNPTGIDPTPEQWKQIASVMKHRFLFPFFDSAYQGFASGNLERDAWAIRYFVSEGFEFFCAQSFSKNFGLYNERVGNLTVVGKEPESILQVLSQMEKIVRITWSNPPAQGARIVASTLSNPELFEEWTGNVKTMADRILTMRSELRARLEALKTPGTWNHITDQIGMFSFTGLNPKQVEYLVNEKHIYLLPSGRINVSGLTTKNLDYVATSIHEAVTKIAENLYFQSHHHHHHDYKDDDDK”, “soluble”. As for “MGGPEKNSTVPLPNKKRKKKTNKKKPTAPNTPTSPQAGEKNANLKNGTVTTNGSNHVERLAGRAVHSLSAIDYSGITNDVEAGGSFSLTDVFPTVIFMFVVLFCRWLNGFSQHRERLYKFEDEAVQRRRRFRVHSEESEELNDHESYSETDICTQLLASSADVTCHINVDLVNQNRFYFFVKQRNKKENSTNEEEEISSQEINTSTQNEETEVNLVFASAEDNGGVASNFDISDALMVTSNISEVSKLPETLCEEGETVQQKSVVNENDHSNEDDEQSLQSQDGSRCSDEDMNSCVSASDEEDVESQDDSFHVNDATEESIDSVSSIESQEAEESATEDLASCHSNDDKNEKDVLVDEDTSKYDNLPVEMRSAKEGEESEGTIDSSVSSSTSSSSTGDDGDDSATSYDSEDIEIQMFEYDLGTACASASISIPRPSIIPRNNKKTEVNANEERLDDLSVSPGRSDSPGGGGGGHSDSFQDPMDPGEQLGSDDEEQEDPRDYKRGGYHPVNIGDVFNARYHVIRKLGWGHFSTVWLAWDTQDKRFVAMKIVKSAEHYTEAALDEIKLLLSVRSADPNDIGCHKVVQLLDEFTVTGINGQHVAMVFEVLGCNLLKLIIRSNYRGLHLEQVRKICRQVLEALGYMHEKCGIIHTDIKPENVLITMSREEIKIMAQHAVVARKMNMKMSGSAVSTAPDHLVKMAQENMTKNKKKKMKKKAKKQREKLEAELAGLEGLKMDANGLQEAYNNAPELENFNASQVEDVTMEDTVNENGNRNKVEIRSPDRFDRTTLTPFSDPESKFGDLASPSAEYLSSPMSQLPPGGILPAPPVGPNIGDPYCDIDVKIADLGNACWVNHHYTDDIQTRQYRALEVLIGSGYGPPADIWSTACMAFELATGDYLFEPHQGDNYSRDEDHLAHISELLGAIPPSIYKKGKHWREFFHKNGHLLHIHQLKPWSLYEVLRQKYEWSHEDAQQFESFLRPMLDFDQEKRSTAKIALKHPFLLPFGGRAPKSDCPPELLSKMFPDGLIPEPFDGNEHQEVYRDENDSRSASERSANSRSAGGSDDDDEEEFNMNRPGPSGHFPIFCSRVFTFMF”, the “soluble on expression in E. coli” value is “soluble”. With “MPLSPILRQILQQLAAQLQFRPDMDVKTVREQFEKSSLILVKMANEPIHRVEDITIPGRGGPIRARVYRPRDGERLPAVVYYHGGGFVLGSVETHDHVCRRLANLSGAVVVSVDYRLAPEHKFPAAVEDAYDAAKWVADNYDKLGVDNGKIAVAGDSAGGNLAAVTAIMARDRGESFVKYQVLIYPAVNLTGSPTVSRVEYSGPEYVILTADLMAWFGRQYFSKPQDALSPYASPIFADLSNLPPALVITAEYDPLRDEGELYAHLLKTRGVRAVAVRYNGVIHGFVNFYPILEEGREAVSQIAASIKSMAVA”, the “soluble on expression in E. coli” value is on record as “soluble”. On to “MPLVGQNVFKSSVTEYDAQTPVVYTVYNEVHQDLLNNTVFLKALADAIDSEIQAAREGKASLLANLQSIRLALQSGSANFGGPAGTTITHNLGTTNFRVSITPTANPDGYLGEIWVVKSSNTMTVFNSGDFRGAFDYQIFKN”, for which the “soluble on expression in E. coli” value is on record as “not soluble”.

With “GFQSNAMKQETPITLHVKSVIEDDGNQEVIEFRTTGFYYVKQNKVYLSYYEEHDLGKVKTIVKVSEGEVLVMRSGAVKMNQRFVTGASTIAKYKMSFGELELKTSTKSIQSDLDEEKGRISIAYDMHVGDEQEHLHNMTITYEGGTHA”, the “soluble on expression in E. coli” value is reported as “soluble”. As for “MGSDKIHHHHHHMDIPHQRLVYFQVTIEAGSVRQAAARLDIAPSAVSRQLSLIEEALGAPLLERSRQGVVPTPVGEMLLDYCRKRAALDDRFSETLDAYQRLETGHLSLTVGEGFVGDLLDTPLRTFTERYRGVRLDVNTGSTSDIIEAVVEDEAHIGLMYHERLHPQLRFWHSSRQPLVALMSPSHPLAAVENELPLATLSEHPMALWRTGHGVRQLVDEGFREAGLGQHVTMQTNSLSVLLHAARSELTLTLLPAFAAARELEDGALVARAVDCERFRQAHAHIITRVGRRMPKAGLQLLRHLERWMRAFKSRLVSG”, the “soluble on expression in E. coli” value was “not soluble”.

On to “MSLTKMRESEIIRMFIEEFDNHALGDDAGFVRFNDSWLLVTSDMLVWRTDVPDFMTPEEAGKKVVTMNVSDIAAMGGLPLAFFFSLGVPENTDEKTLRGIAKGINKGAKEYGVKIVSGDTNEAREIIIDGGAIGRGSRLLLRSNAKPGDLVCVTGELGRPLTALLLWLKGEEIPPKILEKAKNPKAREREGIELSNYANSAIDISDGLSKELWEIARSSNVRIVIDEDKIPVNEEVREIVKDPIKIALASGEEFELVFTIPKENLGNISFDFTIIGRVEEGEGVYIKREDKMERLPILGWEHLKGGDYVNLEGHHHHHH”, for which the “soluble on expression in E. coli” value is recorded as “soluble”.
